Reference: publication PMC9288159, “Identification of a guanine-specific pocket in the protein N of SARS-CoV-2”

Molecular target: SARS-CoV-2 N protein C-terminal domain (NCTD) (SARS-CoV-2, UniProt P0DTC9 256-364)
Assay: EMSA; […]; binding buffer not stated ([…]
Conditions: protein: recombinant; tags: N-terminal His6-TEV site (pET28a); chain copies: 2; label: 5' IRDye-800CW

CGGUUUCUCCG (ssRNA) [Oligo-U (SL5a G to U)]
Kd: 140 ± 29 nM
